We go through three substances from PMC6770254.

The stoichiometry N is the number of molecules, sites or subunits per partner or assembly.

Where “and” joins values, the source holds several entries; their conditions need not be identical. Equal values may be shown once.

What all share (assay): crystal structure; crystals from 2.2 M DL-malic acid, pH 6.5, with or without 5 mM PPi (hanging drop); data at 100 K; oligomers read from the asymmetric unit and the crystal packing
Assay [1] has as its target Acinetobacter baumannii pyrophosphatase K30R variant (Acinetobacter baumannii) (UniProt V5VHL7).
For assay [2], the target named is Acinetobacter baumannii pyrophosphatase K149R variant (Acinetobacter baumannii) (UniProt V5VHL7).
Assay [3] addresses Acinetobacter baumannii pyrophosphatase, wild type (Acinetobacter baumannii) (UniProt V5VHL7).

Consider “Acinetobacter baumannii pyrophosphatase K30R variant (from UniProt V5VHL7 5-174) (enzyme)”, for which the stoichiometry N in assay [1] is 6 and 3. “Acinetobacter baumannii pyrophosphatase K149R variant (from UniProt V5VHL7 5-174) (enzyme)” yielded a stoichiometry N in assay [2] of 6.

Take “Acinetobacter baumannii pyrophosphatase, wild type (from UniProt V5VHL7 5-174) (enzyme)”: the stoichiometry N in assay [3] turned out to be 6.
